“And” between values parts separate entries of the source, which are not always exact repeats. Equal entries are not always repeated.
Key:
[1] = target: the molecule itself; assay: MST; 10 nM NT-647-labelled protein titrated with the same protein unlabelled (0–90.5 μM, 1:1 dilutions); Monolith NT.115; 25 °C; 10 mM HEPES pH 7.5, 500 mM NaCl, 0.5 mM TCEP, 0.05% Tween 20; constant is of monomer to dimer
[2] = target: the molecule itself; assay: dynamic light scattering; purified SAM domain at rising concentrations; 25 °C; DynaPro; hydrodynamic radius compared with radii estimated by HYDROPRO and GRAMM-X for monomer, dimer and tetramer; dimer from 10–20 μM, tetramer >50 μM

B1: SLP-76 SAM domain (residues 1–78), recombinant, His-tagged (domain or fragment, human, UniProt Q13094 1-78, looked up)
chain: MALRNVPFRSEVLGWDPDSLADYFKKLNYKDCEKAVKKYHIDGARFLNLTENDIQKFPKLRVPILSKLSQEINKNEER
modifications: NT-647 dye coupled to primary amines on the labelled copy used in MST (one label per protein molecule); the titrated copy is unlabelled
notes: SLP-76 (LCP2), human, N-terminal sterile alpha motif (SAM) domain, residues 1-78 (helices H1-H5); Cloned into the NdeI/BamHI sites of pET-20b(+); also called SLP-76 N-terminal SAM domain; H1–5; source: E. coli BL21(DE3), pET-20b(+), soluble fraction purified by Ni2+ column
[1]
  Kd: 2500 ± 900 nM
[2]
  stoichiometry N: 2 and 4

Reference: PMC3795252, “SLP-76 Sterile α Motif (SAM) and Individual H5 α Helix Mediate Oligomer Formation for Microclusters and T-cell Activation*” (The Journal of Biological Chemistry, 2013)
